From patent WO2015070078A1
One block for each substance: values may come before it.

How the values were obtained:
[1] = target: human FcγRIIIA (CD16A), variant at 158 not stated (human) (UniProt P08637); test: cell-based or functional assay; parameters: unit not given beside the values
[2] = target: mouse FcγRIIb (mouse) (UniProt P08101); test: ELISA, recombinant mouse FcγRIIb coated on the plate
[3] = target: mouse FcγRIV (mouse); test: ELISA, recombinant mouse FcγRIV coated on the plate
[4] = target: human FcγRIIIa 158F variant (human) (UniProt P08637); test: flow cytometry titration on CHO cells expressing human FcγRIIIa-158F
[5] = target: human FcγRIIIa (158V variant) (human) (UniProt P08637); test: flow cytometry titration on CHO cells expressing human FcγRIIIa-158V
[6] = target: human FcγRIIb (human) (UniProt P31994); test: flow cytometry on CHO cells expressing human FcγRIIb; antibody as dimeric complex with PE-conjugated Fab'2 anti-human Fab'2

EC50 of reverse signaling through FcγRIIIA (CD16A): NFAT-luciferase reporter in Jurkat cells with RMF-pulsed T2 cells [1]: > 10000
Substance: ESK1 containing D265A/P329A mutations in the Fc domain (antibody)

EC50 of reverse signaling through FcγRIIIA (CD16A): NFAT-luciferase reporter in Jurkat cells with RMF-pulsed T2 cells [1]: 0.88
Substance: ESK1 (antibody)

EC50 of reverse signaling through FcγRIIIA (CD16A): NFAT-luciferase reporter in Jurkat cells with RMF-pulsed T2 cells [1]: 0.17
Substance: ESKM having 100% reduced fucose content relative to ESK1 wildtype IgG1 (GlymaxX technology, CHO cells) (antibody)

affinity as a fraction of that of ESK1 [2]: 0.5 fold | higher affinity (against ESK1) [3]: 51% | fold higher affinity (against normally glycosylated ESK1) [4]: 3.5 fold | higher affinity (against normally glycosylated ESK1) [5]: 80% | reduced affinity (against normally glycosylated ESK1) [6]: 50%
Substance: ESKM (produced in MAGE 1.5 CHO cells, no detectable fucose or galactose) (antibody)
